From article PMC9427776, “TTYH family members form tetrameric complexes at the cell membrane” (Communications Biology, 2022)

B1: mTTYH3-EGFP (HEK 293, pEGFP-N1) [mouse] / itself (parent)
chain: MAGVSYAAPWWVSLLHRLPHFDLRWEATSSQFRPEDADYQQALLLLGATALACLALDLLFLLFYSFWLCCRRRKTDEHLDADCCCTAWCVIITTLVCSAGIAVGFYGNGETSDGIHRATYSLRHANRTVAGVQDRVWDTAAALNRTAEPNLQSLERQLAGRQEPLRAVQRLQTLLGTLLGYTAAIPFWRNPGVSLEVLAEQVDLYDWYRWLGYLGLLLLDVIICLLVLVGLIRSSKGILVGVCLLGVLALVISWGALGLELAVSVGSSDFCVDPDTFVTKMVEEHSVLSGDILQYYLACSPRATNPFQQKLSGSHKALVEMQDVVAELLRNVPREHPATKDPLLRVQEVLNGTEVNLQHLTALVDCRSLHLDYVQALTGFCYDGVEGLIYLALFSFVTALMFSSIVCSIPHTWQQKRGPDDDGEEETAPGPRQAHDSLYRVHMPSLYSCGSSYGSEASIPAAAHTVSNAPVTEYMSQNANFQNPRCENTPLIGRESPPPSYTSSMRAKYLATSQPRPDSSGSGH

Variants of: B1
Assay: FSEC
Details: with itself; DDM solubilized HEK 293 cells; n = 3; parent: 0.98; read off a plot

Row | screen value | Variant
1 | 0.25 | chain 1 C366A
2 | 0.27 | chain 1 C299A
